Experimental data published in publication PMC6339671, “NudCL2 is an Hsp90 cochaperone to regulate sister chromatid cohesion by stabilizing cohesin subunits” (Cellular and Molecular Life Sciences: CMLS, 2018).

How the values were obtained:
[1] = target: T1, His-Smc1α (human, UniProt Q14683 1-1233); test: pull-down; GST or GST-NudCL2 protein incubated with each of the purified His-tagged cohesin subunits from Sf9 cells; Western analysis; settings: both partners purified
T1 construct: Full-length human SMC1A cloned by RT-PCR into pFastBac-HT A (His-tag vector); pFastBac-HT A is recalled to add the His tag at the N-terminus; also called His-tagged Smc1α; SMC1A; source: Sf9 insect cells (Bac-to-Bac baculovirus), purified with nickel-nitrilotriacetic acid beads
T1 sequence (looked up): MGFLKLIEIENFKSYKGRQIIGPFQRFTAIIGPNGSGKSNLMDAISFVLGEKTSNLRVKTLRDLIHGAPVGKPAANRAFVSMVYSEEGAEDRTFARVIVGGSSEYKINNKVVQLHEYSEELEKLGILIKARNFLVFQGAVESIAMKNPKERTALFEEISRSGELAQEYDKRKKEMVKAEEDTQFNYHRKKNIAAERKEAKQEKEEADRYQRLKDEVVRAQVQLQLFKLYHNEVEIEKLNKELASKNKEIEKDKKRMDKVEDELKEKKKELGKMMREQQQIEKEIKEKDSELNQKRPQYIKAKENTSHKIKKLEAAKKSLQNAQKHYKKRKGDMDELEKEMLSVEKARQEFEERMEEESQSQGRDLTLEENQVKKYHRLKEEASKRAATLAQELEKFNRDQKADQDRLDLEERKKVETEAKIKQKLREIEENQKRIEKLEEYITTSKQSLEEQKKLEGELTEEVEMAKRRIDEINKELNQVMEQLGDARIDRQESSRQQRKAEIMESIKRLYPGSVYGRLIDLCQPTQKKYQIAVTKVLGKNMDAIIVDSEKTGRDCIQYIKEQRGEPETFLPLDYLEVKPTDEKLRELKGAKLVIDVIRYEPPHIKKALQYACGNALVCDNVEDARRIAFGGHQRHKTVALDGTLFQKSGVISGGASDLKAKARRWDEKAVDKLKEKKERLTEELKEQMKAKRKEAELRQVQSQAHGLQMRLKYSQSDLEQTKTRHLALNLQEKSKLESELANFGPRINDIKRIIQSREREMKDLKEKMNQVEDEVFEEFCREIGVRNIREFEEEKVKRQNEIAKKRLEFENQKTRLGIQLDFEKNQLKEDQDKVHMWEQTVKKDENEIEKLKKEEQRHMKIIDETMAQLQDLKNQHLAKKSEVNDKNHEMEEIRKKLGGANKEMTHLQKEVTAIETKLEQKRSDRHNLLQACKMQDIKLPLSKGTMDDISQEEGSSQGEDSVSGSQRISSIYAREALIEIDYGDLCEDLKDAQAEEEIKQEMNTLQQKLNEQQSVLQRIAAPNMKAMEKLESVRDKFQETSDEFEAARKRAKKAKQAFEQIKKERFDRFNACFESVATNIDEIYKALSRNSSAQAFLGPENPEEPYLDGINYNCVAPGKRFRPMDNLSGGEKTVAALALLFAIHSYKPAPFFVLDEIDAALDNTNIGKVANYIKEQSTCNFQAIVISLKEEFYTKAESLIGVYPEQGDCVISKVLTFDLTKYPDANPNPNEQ

[2] = target: T2, His-Smc3 (human, UniProt Q9UQE7 1-1217); test: as above; settings: both partners purified
T2 construct: Full-length human SMC3 cloned by RT-PCR into pFastBac-HT A (His-tag vector); pFastBac-HT A is recalled to add the His tag at the N-terminus; also called His-tagged Smc3; source: Sf9 insect cells (Bac-to-Bac baculovirus), purified with nickel-nitrilotriacetic acid beads
T2 sequence (Q9UQE7 whole entry): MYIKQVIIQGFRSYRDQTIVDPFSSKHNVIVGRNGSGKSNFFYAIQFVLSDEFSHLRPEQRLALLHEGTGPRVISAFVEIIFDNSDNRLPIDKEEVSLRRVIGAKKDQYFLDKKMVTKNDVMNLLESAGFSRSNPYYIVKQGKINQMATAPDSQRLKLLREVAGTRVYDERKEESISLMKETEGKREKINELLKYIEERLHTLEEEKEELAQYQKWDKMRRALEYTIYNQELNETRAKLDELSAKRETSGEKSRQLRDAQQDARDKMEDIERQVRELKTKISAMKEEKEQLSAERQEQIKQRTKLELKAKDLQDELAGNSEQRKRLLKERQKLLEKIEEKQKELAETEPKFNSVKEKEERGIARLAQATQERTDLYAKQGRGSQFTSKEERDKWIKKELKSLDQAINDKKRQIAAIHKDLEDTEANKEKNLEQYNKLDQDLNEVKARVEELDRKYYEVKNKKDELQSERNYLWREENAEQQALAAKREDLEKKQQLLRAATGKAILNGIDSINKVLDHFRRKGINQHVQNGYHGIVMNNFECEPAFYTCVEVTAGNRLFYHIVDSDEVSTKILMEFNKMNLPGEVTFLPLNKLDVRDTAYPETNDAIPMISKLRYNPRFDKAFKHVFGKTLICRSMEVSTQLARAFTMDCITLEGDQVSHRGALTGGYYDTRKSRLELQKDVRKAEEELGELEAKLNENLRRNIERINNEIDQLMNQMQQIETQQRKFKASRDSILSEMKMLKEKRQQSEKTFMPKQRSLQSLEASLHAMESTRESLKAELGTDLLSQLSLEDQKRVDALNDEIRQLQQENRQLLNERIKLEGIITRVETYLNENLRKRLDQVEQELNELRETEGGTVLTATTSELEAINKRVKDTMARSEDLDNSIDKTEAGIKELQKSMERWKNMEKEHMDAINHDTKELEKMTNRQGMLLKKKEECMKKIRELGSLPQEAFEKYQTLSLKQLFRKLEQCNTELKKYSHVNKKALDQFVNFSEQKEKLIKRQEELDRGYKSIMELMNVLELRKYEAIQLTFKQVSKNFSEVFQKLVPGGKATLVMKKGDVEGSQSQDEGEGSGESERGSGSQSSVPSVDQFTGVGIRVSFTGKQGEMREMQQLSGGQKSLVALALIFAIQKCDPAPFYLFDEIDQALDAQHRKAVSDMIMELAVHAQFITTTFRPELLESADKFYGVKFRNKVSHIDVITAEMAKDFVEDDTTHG

- binding result [1]: binds
- binding result [2]: binds
B1: GST-NudCL2 (natural protein, human, UniProt Q8WVJ2 1-157, looked up)
chain: MSAPFEERSGVVPCGTPWGQWYQTLEEVFIEVQVPPGTRAQDIQCGLQSRHVALSVGGREILKGKLFDSTIADEGTWTLEDRKMVRIVLTKTKRDAANCWTSLLESEYAADPWVQDQMQRKLTLERFQKENPGFDFSGAEISGNYTKGGPDFSNLEK
notes: NudCL2 (NudC-like protein 2), human; also called NudC-like protein 2; source: purified from bacteria
